Source: patent publication US20110293511A1, “SPECIFIC BINDING PROTEINS AND USES THEREOF” (priority 2009, published 2011)

Tests used:
A431 xenografts = assay: s.c. xenograft therapy study; assay type: in vivo, nude mice; settings: established; 6×1 mg IP
Procedure: Tumor cells (3×10^6) in […] of PBS were inoculated subcutaneously into both flanks of 4-6 week old female nude mice (Animal Research Centre, Western Australia, Australia). […] Treatment was continued for a total of 6 doses, 3 times per week for 2 weeks. In the established model, treatment was started when tumors had reached a mean volume of 65±6.42 mm^3 (U87MG.Δ2-7), 84±9.07 mm3 (U87MG), 73±7.5 mm^3 (U87MG.wtEGFR) or 201±19.09 mm^3 (A431 tumors). Tumor volume in mm^3 was determined using the formula […], where length was the longest axis and width the measurement at right angles to the length (Clark et al. (2000) Therapeutic efficacy of anti-Lewis (y) humanized 3S 193 radioimmunotherapy in a breast cancer model: enhanced activity when combined with Taxol chemotherapy. Clin. Cancer Res. 6, 3621-3628). Data was expressed as mean tumor volume±S.E. for each treatment group. Statistical analysis was performed at given time points using Student's t-test. Animals were euthanized when the xenografts reached an approximate volume of 1.5 cm^3 and the tumors excised for histological examination. This research project was approved by the Animal Ethics Committee of the Austin and Repatriation Medical Centre.
AG1478 (4-(3-Chloroanilino)-6,7-dimethoxyquinazoline) is a potent and selective inhibitor of the EGFR kinase versus HER2-neu and platelet-derived growth factor receptor kinase (Calbiochem Cat. No. 658552). […] The results are illustrated in FIG. 12. […] 400 μg AG1478 was administered at 0, 2, 4, 7, 9, and 11 days post xenograft.
With respect to “(iv),” different groups of mice received either 0.5 mg/injection of each mAb, or 0.25 mg/injection of each mAb.
Finally, the fourth group of mice, which had been inoculated with A431 cells, received injections as in groups I and III, at 8, 10, 12 and 14 days after inoculation. At the start, the average tumor size was 71 mm^3.
To establish xenografts, mice were injected subcutaneously into the right and left inguinal mammary line with 1×10^6 A431 adenocarcinoma cells or 1×10^6 U87MG.de2-7 glioma cells in 100 μl of PBS. Tumor volume (TV) was calculated by the formula […] where length was the longest axis and width the measurement at right angles to length. […] Therapy was administered on days 6, 8, 11, 13, 15 and 18 for A431, and days 4, 6, 8, 11, 13 and 15 for the U87MG.de2-7 cell lines respectively. Mean±SEM tumor volumes until termination of the experiments due to ethical considerations of tumor burden are presented in FIG. 91 for the A431 xenograft until day 25, and in FIG. 92 for U87MG.de2-7 xenografts until day 31.

A431 cells = assay: ADCC assay; assay type: cell-based, human; settings: 1 μg/mL; representative experiment
[1] = biological target: T1, denatured soluble domain of the EGFR (sEGFR) (Homo sapiens, UniProt P00533); assay: competition ELISA with biotinylated mAb806; assay type: binding; settings: after unlabeled blocking antibody
T1 construct: sEGFR is the recombinant extracellular domain (amino acids 1-621) of the wild-type EGFR); host or cells: CHO cells
Procedure: Briefly, the denatured soluble domain of the EGFR (sEGFR) was coated on to ELISA plates. The unlabeled 124 or 1133 antibodies were then added across the plate in increasing concentrations.

xenograft U87MGΔEGFR = assay: immunohistochemical analysis on xenograft tumors; assay type: binding, human
xenograft A431 = assay: immunohistochemical analysis on xenograft tumors; assay type: binding, human
Description: The murine fibroblast line NR6ΔEGFR was used as immunogen. Mouse hybridomas were generated by immunizing BALB/c mice five times subcutaneously at 2- to 3-week intervals, with 5×10^5-2×10^6 cells in adjuvant. Complete Freund's adjuvant was used for the first injection. Thereafter, incomplete Freund's adjuvant (Difco™, Voigt Global Distribution, Lawrence, Kans.) was used. Spleen cells from immunized mice were fused with mouse myeloma cell line SP2/0 (Shulman et al. (1978) Nature 276:269-270). Supernatants of newly generated clones were screened in hemadsorption assays for reactivity with cell line NR6, NR6wtEGFR, and NR6ΔEGFR and then analyzed by hemadsorption assays with human glioblastoma cell lines U87MG, U87MGwtEGFR, and U87ΔEGFR. Selected hybridoma supernatants were subsequently tested by western blotting and further analyzed by immunohistochemistry. Newly generated mAbs showing the expected reactivity pattern were purified.
Bound antibody was detected using the Dako Envision+ HRP detection system as per manufacturer's instructions. Sections were finally rinsed with water, counterstained with hematoxylin and mounted.

Binding of biotin-labeled 806 [1]	Molecule	xenograft growth versus PBS vehicle control (A431 xenografts)	ADCC cytotoxicity (A431 cells) [%]	Immunohistochemical staining (xenograft U87MGΔEGFR)	Immunohistochemical staining (xenograft A431)
–	hu806: humanized (veneered) 806 antibody, human IgG1; SEQ ID NO:42 and SEQ ID NO:47 (antibody, V domains shown) VH: MDWTWRILFLVAAATGVHSQVQLQESGPGLVKPSQTLSLTCTVSGYSISSDFAWNWIRQPPGKGLEWMGYISYSGNTRYQPSLKSRITISRDTSKNQFFLKLNSVTAADTATYYCVTAGRGFPYWGQGTLVTVSS VL: MDWTWRILFLVAAATGVHSDIQMTQSPSSMSVSVGDRVTITCHSSQDINSNIGWLQQKPGKSFKGLIYHGTNLDDGVPSRFSGSGSGTDYTLTISSLQPEDFATYYCVQYAQFPWTFGGGTKLEIKR	marked reduction in A431 xenograft growth	30	–	–
None	mAb1133: murine IgG2a monoclonal antibody, clone 1133; VH SEQ ID NO:32, VL SEQ ID NO:37 (antibody, listed as Mus musculus, V domains shown) VH: DVQLQGSGPSLVKPSQSLSLTCTVTGYSITSDYAWNWIRQFPGNKLEWMGYISYSGNTRYNPSLRSRISITRDTSKNQFFLQLNSVTTEDTATYYCATAGRGFPYWGQGTLVTVSA VL: DILMTQSPSSMSVSLGDTVNITCHSSQDINSNIGWLQQKPGKSFKGLIYHGTNLDDGVPSRFSGSGSGADYSLTISSLESEDFADYYCVQYGQFPWTFGGGTKLEIKR	–	–	pos.	pos. (predominantly basal
